In article PMC5264208, “Transitional changes in the CRP structure lead to the exposure of proinflammatory binding sites” (Nature Communications, 2017):

How the values were obtained:
[1] = biological target: T1, Alexa Fluor 488-labelled C1q (human, UniProt P02745 23-245; P02746 28-253; P02747 29-245, Alexa Fluor 488 (site and chain not stated) | Alexa Fluor 488 (site and chain not stated) | Alexa Fluor 488 (site and chain not stated)); experiment: real-time fluorescence binding (LigandTracer); THP-1 microvesicles (0.5 mg/ml) spotted on nitrocellulose, blocked with 5% BSA; Alexa Fluor 488-labelled C1q added with or without pCRP; conditions: both partners purified
T1 construct: Complement C1q subcomponent subunit A, human; Complement C1q subcomponent subunit B, human; Complement C1q subcomponent subunit C, human; Same protein as m3 with a fluorescent label; source: labelled with Alexa Fluor 488; copies: 6 + 6 + 6
T1 sequence (P02745 23-245, chain 1 of 3): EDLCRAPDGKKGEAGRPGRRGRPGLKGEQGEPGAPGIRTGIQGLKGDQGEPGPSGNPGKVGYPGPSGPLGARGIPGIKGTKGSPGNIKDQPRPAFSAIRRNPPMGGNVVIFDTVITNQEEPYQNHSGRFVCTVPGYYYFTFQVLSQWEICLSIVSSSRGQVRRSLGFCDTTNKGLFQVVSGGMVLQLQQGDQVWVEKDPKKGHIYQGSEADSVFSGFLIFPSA
T1 sequence (P02746 28-253, chain 2 of 3): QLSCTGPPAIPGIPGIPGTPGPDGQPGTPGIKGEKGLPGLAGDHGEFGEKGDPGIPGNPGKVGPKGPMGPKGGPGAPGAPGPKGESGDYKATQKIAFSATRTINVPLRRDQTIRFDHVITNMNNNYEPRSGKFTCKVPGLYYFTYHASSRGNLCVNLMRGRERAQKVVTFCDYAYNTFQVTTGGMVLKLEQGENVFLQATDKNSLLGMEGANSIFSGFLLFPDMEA
T1 sequence (P02747 29-245, chain 3 of 3): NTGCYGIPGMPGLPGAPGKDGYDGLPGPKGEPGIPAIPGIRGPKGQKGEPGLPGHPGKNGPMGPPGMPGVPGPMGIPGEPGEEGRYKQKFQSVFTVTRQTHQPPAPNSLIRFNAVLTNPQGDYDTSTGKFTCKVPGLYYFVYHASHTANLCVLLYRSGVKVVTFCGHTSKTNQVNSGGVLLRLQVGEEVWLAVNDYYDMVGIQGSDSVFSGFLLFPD

[2] = biological target: T2, human complement factor 1q (human, UniProt P02745 23-245; P02746 28-253; P02747 29-245); experiment: real-time fluorescence binding (LigandTracer); human C1q (60 ug/ml) spotted on nitrocellulose; CMFDA-labelled THP-1 microvesicles preincubated 2 h at 37 °C with pCRP or mCRP (100 ug/ml) and added at 20 ug/ml; the read-out is the fluorescence of the microvesicles that carry the CRP; conditions: both partners purified
T2 construct: Complement C1q subcomponent subunit A, human; Complement C1q subcomponent subunit B, human; Complement C1q subcomponent subunit C, human; also called C1q; complement C1q; source: bought: Merck Chemicals GmbH; copies: 6 + 6 + 6
T2 sequence (P02745 23-245, chain 1 of 3): as the sequence (P02745 23-245, chain 1 of 3) above
T2 sequence (P02746 28-253, chain 2 of 3): as the sequence (P02746 28-253, chain 2 of 3) above
T2 sequence (P02747 29-245, chain 3 of 3): as the sequence (P02747 29-245, chain 3 of 3) above

binding result [1]: binds | binding result [2]: binds
B1: pentameric C-reactive protein (natural protein, human, UniProt P02741 19-224, looked up)
chain: QTDMSRKAFVFPKESDTSYVSLKAPLTKPLKAFTVCLHFYTELSSTRGYSIFSYATKRQDNEILIFWSKDIGYSFTVGGSEILFEVPEVTVAPVHICTSWESASGIVEFWVDGKPRVRKSLKKGYTVGAEASIILGQEQDSFGGNFEGSQSLVGDIGNVNMWDFVLSPDEINTIYLGGPFSPNVLNWRALKYEVQGEVFTKPQLWP
notes: C-reactive protein, human; five identical subunits of about 23 kDa; also called pCRP; CRP; source: bought: Calbiochem; dialysed against D-PBS with 2 mM Ca2+
